Assay results from publication doi:10.1101/2023.06.03.543554 (bioRxiv, 2023).

Molecular target: T1, human G-protein coupled receptor 1 (GPR1), FLAG-BRIL fusion construct for cryo-EM (human, UniProt P46091 1-355)
T1 sequence: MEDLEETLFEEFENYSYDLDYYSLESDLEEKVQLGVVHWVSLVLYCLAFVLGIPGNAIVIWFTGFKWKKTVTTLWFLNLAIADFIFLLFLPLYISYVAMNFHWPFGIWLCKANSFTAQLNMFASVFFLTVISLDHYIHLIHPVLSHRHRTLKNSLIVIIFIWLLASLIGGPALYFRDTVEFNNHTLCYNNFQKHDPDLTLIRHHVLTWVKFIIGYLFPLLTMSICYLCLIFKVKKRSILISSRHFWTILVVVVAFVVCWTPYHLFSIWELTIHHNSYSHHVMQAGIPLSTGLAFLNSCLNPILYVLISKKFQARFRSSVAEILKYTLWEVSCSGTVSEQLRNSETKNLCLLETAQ
Assay: cryo-EM structure

binding result: binds
B1: full-length chemerin (21-157) (ligand)
chain: ELTEAQRRGLQVALEEFHKHPPVQWAFQETSVESAVDTPFPAGIFVRLEFKLQQTSCRKRDWKKPECKVRPNGRKRKCLACIKLGSEDKVLGRLVHCPIETQVLREAEEHQETQCLRVQRAGEDPHSFYFPGQFAFS
